From paper PMC12316982 (Nature Communications, 2025)
Residue numbers refer to the chain shown, from its start.

B1: NCS.1.3 (human IgG1) (antibody, V domains shown)
VH: QVQLQESGPRLVKPSETLSLTCSVSGESISSGGYYWTWIRQHPGKGLEWIGNIFDTGSTDYSPSLKTRLTISIDTSKNQFYLRLTSATAADTAVYYCARVGFSLETDRPYYLGLDVWGQGTTVTVSS
VL: DIVMTQSPLTLPVTPGEPASISCRSSQSLLHSNGYTYLDWYLQKPGQSPQLLIYFASNRASGVPDRFSGSGSGTYFTLKISRVEAEDVGVYYCMQAVQSPWTFGQGTKVEIK
B2: NCS.1 (human IgG1) (antibody, V domains shown)
VH: B1 VH with Q5P, D60H, T85N, F102Y, L112F
VL: B1 VL with T10S, F55L, S99T
B3: NCS.1.1 (human IgG1) (antibody, V domains shown)
VH: B1 VH with T85N
VL: B1 VL with T10S, Y54S, A56T, S99T

molecular target: stabilized neuraminidase protein (sNAp) of A/Vietnam/1203/2004 (VN04, H5N1) (Influenza A virus A/Vietnam/1203/2004 …, UniProt Q6DPL2, stabilised); experiment: ELISA; conditions: both partners purified

| Binder | binding result |
| --- | --- |
| B1 | binds |
| B2 | binds |
| B3 | binds |
